Data taken from patent US20070004622A1 (REGEN BIOTECH, published 2007).

Molecular target: αvβ3 integrin (human, UniProt P06756 31-1048; P05106 27-788)
Assay: cell-based or functional assay

Chain of αvβ3 integrin (P06756 31-1048, chain 1 of 2): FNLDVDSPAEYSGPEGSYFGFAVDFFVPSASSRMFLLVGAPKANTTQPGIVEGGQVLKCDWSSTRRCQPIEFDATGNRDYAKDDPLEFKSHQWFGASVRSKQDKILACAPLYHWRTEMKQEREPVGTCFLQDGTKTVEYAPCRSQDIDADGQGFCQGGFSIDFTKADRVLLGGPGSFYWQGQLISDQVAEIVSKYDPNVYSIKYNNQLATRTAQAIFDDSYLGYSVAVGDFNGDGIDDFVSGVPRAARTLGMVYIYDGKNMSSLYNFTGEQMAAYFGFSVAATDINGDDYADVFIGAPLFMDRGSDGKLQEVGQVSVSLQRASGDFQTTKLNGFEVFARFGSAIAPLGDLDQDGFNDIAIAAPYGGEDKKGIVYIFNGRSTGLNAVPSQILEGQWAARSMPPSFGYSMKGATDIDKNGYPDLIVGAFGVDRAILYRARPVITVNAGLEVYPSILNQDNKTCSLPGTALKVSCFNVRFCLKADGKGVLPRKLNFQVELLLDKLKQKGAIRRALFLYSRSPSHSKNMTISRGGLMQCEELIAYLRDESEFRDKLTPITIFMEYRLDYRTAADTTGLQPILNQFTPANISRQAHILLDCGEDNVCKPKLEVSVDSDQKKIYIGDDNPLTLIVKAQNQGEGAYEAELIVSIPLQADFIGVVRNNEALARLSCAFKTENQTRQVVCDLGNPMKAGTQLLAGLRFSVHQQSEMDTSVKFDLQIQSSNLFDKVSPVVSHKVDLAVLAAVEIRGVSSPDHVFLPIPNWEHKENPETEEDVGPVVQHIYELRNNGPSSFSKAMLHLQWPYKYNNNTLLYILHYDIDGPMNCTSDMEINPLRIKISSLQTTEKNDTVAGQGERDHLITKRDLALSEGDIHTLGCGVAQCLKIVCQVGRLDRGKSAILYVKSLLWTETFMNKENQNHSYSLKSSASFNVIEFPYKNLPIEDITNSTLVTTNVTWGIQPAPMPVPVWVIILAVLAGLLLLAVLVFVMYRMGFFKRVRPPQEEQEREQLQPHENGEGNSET
Chain of αvβ3 integrin (P05106 27-788, chain 2 of 2): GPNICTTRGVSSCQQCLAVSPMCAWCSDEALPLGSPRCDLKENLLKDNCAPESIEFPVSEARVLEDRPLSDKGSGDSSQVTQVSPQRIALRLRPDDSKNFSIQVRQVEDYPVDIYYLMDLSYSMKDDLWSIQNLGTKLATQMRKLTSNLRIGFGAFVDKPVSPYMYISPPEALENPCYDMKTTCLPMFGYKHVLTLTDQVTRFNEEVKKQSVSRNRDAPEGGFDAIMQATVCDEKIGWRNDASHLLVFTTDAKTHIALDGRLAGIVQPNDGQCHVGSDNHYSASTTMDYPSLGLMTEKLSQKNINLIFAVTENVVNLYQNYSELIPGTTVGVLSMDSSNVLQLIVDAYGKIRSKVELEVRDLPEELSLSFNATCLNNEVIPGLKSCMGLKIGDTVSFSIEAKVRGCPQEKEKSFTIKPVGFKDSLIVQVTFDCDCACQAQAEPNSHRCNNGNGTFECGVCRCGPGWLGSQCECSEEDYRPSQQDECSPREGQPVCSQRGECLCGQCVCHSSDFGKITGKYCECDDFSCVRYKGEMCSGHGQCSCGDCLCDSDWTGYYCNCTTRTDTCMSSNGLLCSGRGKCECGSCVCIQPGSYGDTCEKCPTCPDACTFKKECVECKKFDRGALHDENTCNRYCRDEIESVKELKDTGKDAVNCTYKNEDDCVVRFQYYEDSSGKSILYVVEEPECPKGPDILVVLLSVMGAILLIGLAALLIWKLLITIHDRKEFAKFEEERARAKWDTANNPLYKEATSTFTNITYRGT

- IC50 of inhibition of HUVEC tube formation on Matrigel: 500 µM
B1: YH18 synthetic peptide derived from the fourth fas-1 domain of βig-h3 (D-IV YH18) (peptide)
peptide: KELANILKYHIGDEILVS
